{"source": "paper PMC10444022", "about": "“SARS-CoV-2 hijacks neutralizing dimeric IgA for nasal infection and injury in Syrian hamsters^1” (Emerging Microbes & Infections, 2023)", "binders": {"B1": {"name": "B8-dIgA1 (antibody, V domains shown)", "VH": "EVQLVQSGAEVKKPGSSVKVSCKASGGTFSNYGISWVRQAPGQGLEWMGRILPTFGTANSAQKFQGRVTITADESTGTAYMELRSLRSEDTAVYYCAKEGLAFLGYGMDVWGQGTTVTVSS", "VL": "EIVLTQSPGTLSLSPGERATLSCRASQSVSSYLAWYQQKPGQAPRLLIYDASNRATGIPARFIGSGSGTDFTLTISSLEPEDFAVYFCQQRSNWPLTFGGGTKVEIK"}, "B2": {"name": "B8-mIgA2 (antibody, V domains shown)", "VH": "B1 VH", "VL": "B1 VL"}, "B3": {"name": "B8-mIgA1 (antibody, V domains shown)", "VH": "B1 VH", "VL": "B1 VL"}, "B4": {"name": "B8-dIgA2 (antibody, V domains shown)", "VH": "B1 VH", "VL": "B1 VL"}}}
{"biological_target": "recombinant SARS-CoV-2 RBD (Sino Biological) (SARS-CoV-2, UniProt P0DTC2)", "test": "cell-based or functional assay", "units": {"IC50, neutralisation of SARS-CoV-2 pseudovirus in HEK293T-ACE2 cells": "µg/mL", "IC90, neutralisation of SARS-CoV-2 pseudovirus in HEK293T-ACE2 cells": "µg/mL"}}
{"binder": "B1", "IC50, neutralisation of SARS-CoV-2 pseudovirus in HEK293T-ACE2 cells": 0.0048, "IC90, neutralisation of SARS-CoV-2 pseudovirus in HEK293T-ACE2 cells": 0.033}
{"binder": "B2", "IC50, neutralisation of SARS-CoV-2 pseudovirus in HEK293T-ACE2 cells": 0.0057, "IC90, neutralisation of SARS-CoV-2 pseudovirus in HEK293T-ACE2 cells": 0.014}
{"binder": "B3", "IC50, neutralisation of SARS-CoV-2 pseudovirus in HEK293T-ACE2 cells": 0.012, "IC90, neutralisation of SARS-CoV-2 pseudovirus in HEK293T-ACE2 cells": 0.052}
{"binder": "B4", "IC50, neutralisation of SARS-CoV-2 pseudovirus in HEK293T-ACE2 cells": 0.012, "IC90, neutralisation of SARS-CoV-2 pseudovirus in HEK293T-ACE2 cells": 0.021}
